In US20230054300A1 (PARIS SCIENCES ET LETTRES QUARTIER LATIN, published 2023):

B1: FRB protein (FRB subunit of the mTOR protein complex) having the sequence of SEQ ID NO: 6, with 4-azido-L-phenylalanine at position 2,020, conjugated to an … (other)
chain: GPLGSFILWHEMWHEGLEEASRLYFGERNVKGMFEVLEPLHAMMERGPQTLKETSFNQAYGRDLMEAQEWCRKYMKSGNVKDLTQAWDLYYHVFRRISKQLPQL
modifications: 4-azido-L-phenylalanine in place of alanine at position 2,020; the azide is click-coupled to the DBCO-dT at the 5' end of oligo-Tc (Oligo-Tc1, SEQ ID NO: 4), which is ligated to the double-stranded DNA molecule
notes: Free FRB added in solution (0-200 nM) is described as identical to the test molecule
B2: SNAP-gephyrin rC4 (other)
chain: MRGSHHHHHHGSACELSSGLEVLFQGPHMASMDKDCEMKRTTLDSPLGKLELSGCEQGLHEIKLLGKGTSAADAVEVPAPAAVLGGPEPLMQATAWLNAYFHQPEAIEEFPVPALHHPVFQQESFTRQVLWKLLKVVKFGEVISYQQLAALAGNPAATAAVKTALSGNPVPILIPCHRVVSSSGAVGGYEGGLAVKEWLLAHEGHRLGKPGLGSSGGTMATEGMILTNHDHQIRVGVLTVSDSCFRNLAEDRSGINLKDLVQDPSLLGGTISAYKIVPDEIEEIKETLIDWCDEKELNLILTTGGTGFAPRDVTPEATKEVIEREAPGMALAMLMGSLNVTPLGMLSRPVCGIRGKTLIINLPGSKKGSQECFQFILPALPHAIDLLRDAIVKVKEVHDELEDLPSPPPPLSPPPTTSPHKQTEDKGVQCEEEEEEKKDSGVASTEDSSSSHITAAALAAKIPDSIISRGVQVLPRDTASLSTTPSESPRAQATSRLSTASCPTPKARLPSCSSTYSVSEVQSRCSSKENILRASHSAVDITKVARRHRMSPFPLTSMDKAFITVLEMTPVLGTEIINYRDGMGRVLAQDVYAKDNLPPFPASVKDGYAVRAADGPGDRFIIGESQAGEQPTQTVMPGQVMRVTTGAPIPCGADAVVQVEDTELIRESDDGTEELEVRILVQARPGQDIRPIGHDIKRGECVLAKGTHMGPSEIGLLATVGVTEVEVNKFPVVAVMSTGNELLNPEDDLLPGKIRDSNRSTLLATIQEHGYPTINLGIVGDNPDDLLNALNEGISRADVIITSGGVSMGEKDYLKQVLDIDLHAQIHFGRVFMKPGLPTTFATLDIDGVRKIIFALPGNPVSAVVTCNLFVVPALRKMQGILDPRPTIIKARLSCDVKLDPRPEYHRCILTWHHQEPLPWAQSTGNQMSSRLMSMRSANGLLMLPPKTEQYVELHKGEVVDVMVIGRL
modifications: SNAP tag covalently bound (thioether) to the benzylguanine at an extremity of the DNA molecule
notes: also called Gephyrin construct rC4

Key:
[1] = target: T1, FKBP12 protein having the sequence of SEQ ID NO: 7, with 4-azido-L-phenylalanine at position 1, conjugated to … (Homo sapiens (Human), UniProt P62942 2-108, 4-azido-L-phenylalanine in place of methionine at position 1; the azide is click-coupled to the DBCO-dT at the 5' end of oligo-Tc (Oligo-Tc2, SEQ ID NO: 5), which is ligated to the double-stranded …); experiment: magnetic tweezers, force cycling, FHF=6 pN, T=303 K, 500 nM rapamycin
T1 construct: In the assay it is present as the binary complex with rapamycin (500 nM)
T1 sequence (P62942 other isoform, or with tags, fused parts or gaps limits assumed): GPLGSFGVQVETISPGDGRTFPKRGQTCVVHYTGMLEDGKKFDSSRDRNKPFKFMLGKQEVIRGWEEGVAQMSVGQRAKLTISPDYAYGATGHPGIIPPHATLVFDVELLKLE
Source text: (§1) At each passage at FLF=0.05 pN for time TLF=13 s, the test molecules associate, then, after passage at FHF=1.4 pN, they separate after a time indicated as t_HF-A. The high force is applied for time THF=155 s. […] C) Temporal monitoring of the extension of the double-stranded DNA molecule when the force is cycled between high value and low value (TS: schematic diagram of the FHF/FLF cycles). At each passage at FLF=0.05 pN for time TLF=14 s the test molecules associate and then, after passage at FHF=6 pN, they separate after a time indicated as t_HF-A. The high force is applied for time THF=125 s. […] The curves are provided for several temperatures: OT=29.1° C.; […]T=25.4° C.; ⋄ T=21.7° C.; x T=19.2° C. […] F) Variation of XD, the distance separating the transition state from the complex during dissociation, as a function of temperature. […] A linear fit in agreement with the Arrhenius-Bell model, ln[kD⁰]=A−ED/kBT, makes it possible to determine ED, the activation energy of the dissociation reaction.
(§2) Example 10 was performed either at 25° C. or at 30° C. in DB reaction buffer (20 mM K-Hepes pH 7.8, 100 mM KCl, 5 mM MgCl₂, 2 mM DTT, 0.1% Tween-20, 0.1 mg/ml BSA). Measurements were also performed at 19.2° C., 21.7° C., 25.4° C. and 29.1° C. (see FIG. 15E).

[2] = target: T1, FKBP12 protein having the sequence of …; experiment: magnetic tweezers, force cycling, FHF=1.4 pN, T=303 K, 500 nM rapamycin
Source text: as §1, §2

[3] = target: T1, FKBP12 protein having the sequence of …; experiment: derived as kA=kD/KD; magnetic tweezers, FCF=0.04 pN, 25 °C, 500 nM rapamycin; derived as kA=kD/KD
Experimental: as §2
(§3) Said fraction of time spent by the test molecules in associated form is determined according to (Σt_{CF-A})/tₜₒₜₐₗ, where tₜₒₜₐₗ is the total time during which the fluctuations are recorded and analyzed.

[4] = target: T1, FKBP12 protein having the sequence of …; experiment: magnetic tweezers, force cycling, FHF=1.4 pN, T=298 K, 500 nM rapamycin; kD=1/<τD> averaged over several molecules
[5] = target: T1, FKBP12 protein having the sequence of …; experiment: magnetic tweezers, spontaneous fluctuations at constant force FCF=0.04 pN, 25 °C, 500 nM rapamycin; average over several DNA molecules and inversion; no free FRB in solution; FCF=0.04 pN, 25 C
Experimental: as §2

[6] = target: T1, FKBP12 protein having the sequence of …; experiment: magnetic tweezers, spontaneous fluctuations at FCF=0.04 pN, 25 °C, 500 nM rapamycin, with 0-200 nM free FRB in solution; average over concentrations; 0-200 nM free FRB in solution; averaged over concentrations
Experimental: as §2, §3

[7] = target: CLIP-PHloop protein (10xHis-CLIP-tagged glycine receptor β loop) (CLIP tag covalently bound (thioether) to the benzylcytosine at an extremity of the DNA molecule); experiment: single-molecule magnetic tweezers; SNAP-gephyrin and CLIP-PHloop attached to the DNA molecule; force cycling FLF=0.01 pN for 13 s / FHF=1.1 pN for 52 s; 19.2 °C; GB buffer [continued]
CLIP-PHloop protein (10xHis-CLIP-tagged glycine receptor β loop) (CLIP tag covalently bound (thioether) to the benzylcytosine at an extremity of the DNA molecule), sequence (chain, as listed by the source limits assumed): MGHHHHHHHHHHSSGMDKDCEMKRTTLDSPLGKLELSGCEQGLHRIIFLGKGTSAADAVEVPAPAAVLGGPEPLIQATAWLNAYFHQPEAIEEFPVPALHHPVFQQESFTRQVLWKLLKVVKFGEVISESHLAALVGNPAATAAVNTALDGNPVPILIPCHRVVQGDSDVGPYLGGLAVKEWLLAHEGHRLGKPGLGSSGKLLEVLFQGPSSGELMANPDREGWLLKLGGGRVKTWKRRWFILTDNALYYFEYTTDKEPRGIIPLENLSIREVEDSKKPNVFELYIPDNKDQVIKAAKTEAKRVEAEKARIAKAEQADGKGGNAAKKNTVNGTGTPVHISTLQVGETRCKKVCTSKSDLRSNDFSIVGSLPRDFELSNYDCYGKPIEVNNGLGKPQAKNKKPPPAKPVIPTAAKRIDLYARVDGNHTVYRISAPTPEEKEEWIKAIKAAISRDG
Source text: HF corresponds to the application of a high force (“High Force”); LF corresponds to the application of a low force (“Low Force”). The test molecules can be either associated (A for “Associated”) or dissociated (D for “Dissociated”).

| Binder | koff [1] [s⁻¹] | koff [2] [s⁻¹] | kon [3] [M⁻¹ s⁻¹] | koff [4] [s⁻¹] | koff [5] [s⁻¹] | koff [6] [s⁻¹] | binding result [7] |
| --- | --- | --- | --- | --- | --- | --- | --- |
| B1 | 0.0649 | 0.0484 | 4.5e+06 | 0.0322 | 0.0341 | 0.0327 | – |
| B2 | – | – | – | – | – | – | binds |
